Consider one molecule from publication PMC10695398 (PLOS Pathogens, 2023).

This assay has as its target T1, His6-tagged STAT3, bacterially derived (UniProt P40763 1-770).
T1 construct: also called His6-STAT3; His6-St3; source: E. coli BL21(DE3), purified (Ni-NTA, eluted with imidazole)
Put plainly: pull-down. The note with it: both partners purified.

T1 sequence (P40763 whole entry): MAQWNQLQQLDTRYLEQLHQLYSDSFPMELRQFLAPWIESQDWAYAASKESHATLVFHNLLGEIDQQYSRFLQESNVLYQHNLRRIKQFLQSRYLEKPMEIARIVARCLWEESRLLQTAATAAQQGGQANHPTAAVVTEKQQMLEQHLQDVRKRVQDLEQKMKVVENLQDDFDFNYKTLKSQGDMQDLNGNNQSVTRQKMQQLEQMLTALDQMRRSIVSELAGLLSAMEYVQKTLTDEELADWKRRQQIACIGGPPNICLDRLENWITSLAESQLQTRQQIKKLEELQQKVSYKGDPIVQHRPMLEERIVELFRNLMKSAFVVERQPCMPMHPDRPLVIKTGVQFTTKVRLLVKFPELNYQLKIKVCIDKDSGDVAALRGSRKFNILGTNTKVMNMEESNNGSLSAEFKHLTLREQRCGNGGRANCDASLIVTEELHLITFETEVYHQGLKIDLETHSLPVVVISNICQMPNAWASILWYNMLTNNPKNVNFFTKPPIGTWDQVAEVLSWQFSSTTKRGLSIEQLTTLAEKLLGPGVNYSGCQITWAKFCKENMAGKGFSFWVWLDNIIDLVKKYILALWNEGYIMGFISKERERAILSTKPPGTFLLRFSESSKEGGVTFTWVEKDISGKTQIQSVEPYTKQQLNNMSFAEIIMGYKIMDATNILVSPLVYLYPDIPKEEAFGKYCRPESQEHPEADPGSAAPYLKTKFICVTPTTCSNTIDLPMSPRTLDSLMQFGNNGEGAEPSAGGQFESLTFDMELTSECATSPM

B1: GST-tagged vIRF-1, bacterially derived (natural protein)
chain: MDPGQRPNPFGAPGAIPKKPCLSQGSPGTSGSGAPCDEPSRSESPGEGPSGTGGSAAAGDITRQAVVAAITEWSRTRQLRISTGASEGKASIKDWIVCQVNSGKFPGVEWEDEERTRFRIPVTPLADPCFEWRRDGELGVVYIRERGNMPVDASFKGTRGRRRMLAALRRTRGLQEIGKGISQDGHHFLVFRVRKPEEEQCVECGVVAGAVHDFNNMARLLQEGFFSPGQCLPGEIVTPVPSCTTAEGQEAVIDWGRLFIRMYYNGEQVHELLTTSQSGCRISSALRRDPAVHYCAVGSPGQVWLPNVPNLACEIAKRELCDTLDACAKGILLTSSCNGIFCVCYHNGPVHFIGNTVPPDSGPLLLPQGKPTRIFNPNTFLVGLANSPLPAPSHVTCPLVKLWLGKPVAVGKLEPHAPSPRDFAARCSNFSDACVVLEIMPKPLWDAMQ
notes: also called GST-fused vIRF-1; vIRF-1-GST
Take B1: the binding result is recorded as “binds”.
